{"source": "paper PMC10705692", "about": "“Structural dynamics of GluK2 kainate receptors in apo and partial agonist bound states” (Research Square, 2023)", "proteins": {"B1": {"name": "full-length rat GluK2 KAR, cryo-EM construct (GluK2 EM) (receptor, UniProt P42260 32-908, looked up)", "chain": "TTHVLRFGGIFEYVESGPMGAEELAFRFAVNTINRNRTLLPNTTLTYDTQKINLYDSFEASKKACDQLSLGVAAIFGPSHSSSANAVQSICNALGVPHIQTRWKHQVSDNKDSFYVSLYPDFSSLSRAILDLVQFFKWKTVTVVYDDSTGLIRLQELIKAPSRYNLRLKIRQLPADTKDAKPLLKEMKRGKEFHVIFDCSHEMAAGILKQALAMGMMTEYYHYIFTTLDLFALDVEPYRYSGVNMTGFRILNTENTQVSSIIEKWSMERLQAPPKPDSGLLDGFMTTDAALMYDAVHVVSVAVQQFPQMTVSSLQCNRHKPWRFGTRFMSLIKEAHWEGLTGRITFNKTNGLRTDFDLDVISLKEEGLEKIGTWDPASGLNMTESQKGKPANITDSLSNRSLIVTTILEEPYVLFKKSDKPLYGNDRFEGYCIDLLRELSTILGFTYEIRLVEDGKYGAQDDVNGQWNGMVRELIDHKADLAVAPLAITYVREKVIDFSKPFMTLGISILYRKPNGTNPGVFSFLNPLSPDIWMYVLLAYLGVSVVLFVIARFSPYEWYNPHPSNPDSDVVENNFTLLNSFWFGVGALMQQGSELMPKALSTRIVGGIWWFFTLIIISSYTANLAAFLTVERMESPIDSADDLAKQTKIEYGAVEDGATMTFFKKSKISTYDKMWAFMSSRRQSVLVKSNEEGIQRVLTSDYAFLMESTTIEFVTQRNCNLTQIGGLIDSKGYGVGTPMGSPYRDKITIAILQLQEEGKLHMMKEKWWRGNGCPEEESKEASALGVQNIGGIFIVLAAGLVLSVFVAVGEFLYKSKKNAQLEKRSFCSAMVEELRMSLKCQRRLKHKPQAPVIVKTEEVINMHTFNDRRLPGKETMA", "modifications": "N-glycosylation at Asn 67, 73, 275, 378, 412, 423, 430, 546 and 751 (LC-MS/MS of the purified protein)", "notes": "Glutamate receptor ionotropic, kainate 2 (GluK2), rat, full length; RNA-edited at position 567 (I to V), with C576V and C595S; followed by a human rhinovirus 3C protease site and a Twin-Strep tag at the C-terminus; Homotetramer (subunits A-D); No cleavage of the 3C site is described; also called homomeric rat GluK2; GRIK2_RAT; source: Sf9 insect cells (baculovirus, EarlyBac), solubilised in DDM, …"}}, "biological_target": "the molecule itself", "experiment": "cryo-EM structure; purified GluK2 EM in DDM micelles without ligand (apo; residual glutamate washed out on Strep-Tactin), 50 mM Tris-Cl pH 8.0, 150 mM NaCl, 1 mM DDM, ~4 mg/ml; single-particle cryo-EM, C2 imposed, 3.0 Å", "data": [{"protein": "B1", "values": [{"measurement": "stoichiometry N", "result": 4}]}]}
